Assays:
HLA-A*30:01 = experiment: IEDB peptide-MHC binding, purified MHC/competitive/radioactivity; filed as Kd, often an IC50 or EC50 that approximates it; ≥ and ≤ were set here for values at or beyond the usual limits of such assays
HLA-A*32:01 = experiment: as above
HLA-A*24:02 = experiment: as above
HLA-A*01:01 = experiment: as above
HLA-A*29:02 = experiment: as above
HLA-A*23:01 = experiment: as above
HLA-A*26:01 [1] = experiment: as above
HLA-A*30:02 = experiment: as above
HLA-B*51:01 = experiment: as above
HLA-B*53:01 = experiment: as above; conditions: source organism: Dengue virus 1 Singapore/S275/1990
HLA-B*35:01 = experiment: as above; conditions: source organism: Dengue virus 1 Singapore/S275/1990
HLA-A*26:01 [2] = experiment: IEDB peptide-MHC binding, purified MHC/direct/fluorescence; filed as Kd, often an IC50 or EC50 that approximates it; ≥ and ≤ were set here for values at or beyond the usual limits of such assays; conditions: source organism: West Nile virus
[3] = source organism: Mammarenavirus juninense
[4] = source organism: Mammarenavirus whitewaterense
[5] = source organism: Dengue virus 2 Jamaica/1409/1983
[6] = source organism: SARS coronavirus Tor2
[7] = source organism: Dengue virus 4 Philippines/H241/1956
[8] = source organism: Lymphocytic choriomeningitis virus (strain Armstrong)
[9] = source organism: Mammarenavirus lassaense
[10] = source organism: Mammarenavirus guanaritoense

Sequence GEKSRCYSIY has a Kd (HLA-A*30:01; [3]) of 2190 nM, a Kd (HLA-A*32:01; [3]) of at least 69900 nM and a Kd (HLA-A*24:02; [3]) of at least 70300 nM. The Kd (HLA-A*01:01; [3]) was 13900 nM, the Kd (HLA-A*29:02; [3]) was at least 51800 nM and the Kd (HLA-A*23:01; [3]) was at least 70000 nM. The Kd (HLA-A*26:01 [1]; [3]) was 18000 nM and the Kd (HLA-A*30:02; [3]) was 3160 nM.
Sequence EALSGFLQY has a Kd (HLA-A*30:01; [3]) of at least 43100 nM, a Kd (HLA-A*32:01; [3]) of at least 77800 nM and a Kd (HLA-A*01:01; [3]) of 11600 nM. The Kd (HLA-A*29:02; [3]) was 778 nM, the Kd (HLA-A*26:01 [1]; [3]) was 1490 nM and the Kd (HLA-A*30:02; [3]) was 3950 nM.
Sequence ATGTDMPGGY has a Kd (HLA-A*30:01; [4]) of at least 63600 nM, a Kd (HLA-A*32:01; [4]) of at least 69900 nM and a Kd (HLA-A*01:01; [4]) of 33 nM. For the same sequence, the Kd (HLA-A*29:02; [4]) was 8850 nM, the Kd (HLA-A*26:01 [1]; [4]) was at least 69700 nM and the Kd (HLA-A*30:02; [4]) was 531 nM.
Work on PFGDSYIII yielded a Kd (HLA-A*23:01; [5]) of 3960 nM.
DSSQGSEYDY gave a Kd (HLA-A*24:02; [6]) of at least 70300 nM, a Kd (HLA-A*01:01; [6]) of 151 nM and a Kd (HLA-A*29:02; [6]) of 1350 nM. The Kd (HLA-A*23:01; [6]) was at least 70000 nM, the Kd (HLA-A*26:01 [1]; [6]) was 7270 nM and the Kd (HLA-A*30:02; [6]) was 151 nM.
GAEHVDTSY showed a Kd (HLA-A*24:02; [6]) of at least 77600 nM, a Kd (HLA-A*01:01; [6]) of 398 nM and a Kd (HLA-A*29:02; [6]) of 722 nM. For the same sequence, the Kd (HLA-A*23:01; [6]) was at least 77800 nM, the Kd (HLA-A*26:01 [1]; [6]) was 2450 nM and the Kd (HLA-A*30:02; [6]) was 2900 nM.
For AYATAQEAY, the Kd (HLA-A*24:02; [6]) was at least 53900 nM, the Kd (HLA-A*01:01; [6]) was at least 98000 nM and the Kd (HLA-A*29:02; [6]) was 642 nM. It also gave a Kd (HLA-A*23:01; [6]) of at least 77800 nM, a Kd (HLA-A*26:01 [1]; [6]) of at least 43100 nM and a Kd (HLA-A*30:02; [6]) of 50.6 nM.
TGFDWITDY was tested, and the Kd (HLA-A*30:02; [7]) was 1600 nM.
In the case of SYEHQTPFEI, the Kd (HLA-A*24:02; [6]) is reported as 1240 nM, the Kd (HLA-A*01:01; [6]) is reported as 3680 nM and the Kd (HLA-A*29:02; [6]) is reported as 7160 nM. The Kd (HLA-A*23:01; [6]) was 945 nM, the Kd (HLA-A*26:01 [1]; [6]) was 10400 nM and the Kd (HLA-A*30:02; [6]) was 7060 nM.
With FSKSRSTLMY the Kd (HLA-A*30:01; [8]) was 377 nM, the Kd (HLA-A*32:01; [8]) was at least 69900 nM and the Kd (HLA-A*01:01; [8]) was 68.5 nM. It also gave a Kd (HLA-A*29:02; [8]) of 333 nM, a Kd (HLA-A*26:01 [1]; [8]) of 878 nM and a Kd (HLA-A*30:02; [8]) of 993 nM.
CYSQVNPTTL showed a Kd (HLA-A*24:02; [7]) of 326 nM and a Kd (HLA-A*23:01; [7]) of 1330 nM.
Work on QWNLVIGFLF yielded a Kd (HLA-A*24:02; [6]) of 5.64 nM, a Kd (HLA-A*01:01; [6]) of at least 30600 nM and a Kd (HLA-A*29:02; [6]) of 39.5 nM. It also gave a Kd (HLA-A*23:01; [6]) of 2.14 nM, a Kd (HLA-A*26:01 [1]; [6]) of at least 69700 nM and a Kd (HLA-A*30:02; [6]) of at least 26300 nM.
Work on VAHSSLYGRY yielded a Kd (HLA-A*30:01; [3]) of 8960 nM, a Kd (HLA-A*32:01; [3]) of at least 69900 nM and a Kd (HLA-A*01:01; [3]) of 5800 nM. It also gave a Kd (HLA-A*29:02; [3]) of 349 nM, a Kd (HLA-A*26:01 [1]; [3]) of 11700 nM and a Kd (HLA-A*30:02; [3]) of 5.86 nM.
For DPRRCMKPVI, the Kd (HLA-B*51:01; [5]) was 9650 nM.
QYNLSHSYAV showed a Kd (HLA-A*24:02; [9]) of 1950 nM, a Kd (HLA-A*01:01; [9]) of at least 70400 nM and a Kd (HLA-A*29:02; [9]) of 1300 nM. For the same sequence, the Kd (HLA-A*23:01; [9]) was 346 nM, the Kd (HLA-A*26:01 [1]; [9]) was at least 69700 nM and the Kd (HLA-A*30:02; [9]) was 3330 nM.
For AYMLFTKFFY, the Kd (HLA-A*24:02; [6]) was 0.241 nM, the Kd (HLA-A*01:01; [6]) was 339 nM and the Kd (HLA-A*29:02; [6]) was 0.00115 nM. For the same sequence, the Kd (HLA-A*23:01; [6]) was 0.115 nM and the Kd (HLA-A*26:01 [1]; [6]) was 83.5 nM.
Sequence LPVLLGSLGC has a Kd (HLA-B*53:01) of 199 nM, a Kd (HLA-B*51:01; source organism: Dengue virus 1 Singapore/S275/1990) of at least 20100 nM and a Kd (HLA-B*35:01) of 2030 nM.
YAQMWSLMY was tested, and the Kd (HLA-A*30:02; source organism: Dengue virus 3 Martinique/1243/1999) was 8.8 nM.
With FMMSRRRLL the Kd (HLA-A*24:02; [6]) was 1410 nM, the Kd (HLA-A*01:01; [6]) was at least 78100 nM and the Kd (HLA-A*29:02; [6]) was 2620 nM. For the same sequence, the Kd (HLA-A*23:01; [6]) was 496 nM, the Kd (HLA-A*26:01 [1]; [6]) was at least 77900 nM and the Kd (HLA-A*30:02; [6]) was 6730 nM.
FKPGTSGSPI was tested, and the Kd (HLA-B*51:01; source organism: Dengue virus 1 Brazil/97-11/1997) was 5750 nM.
HTNEDDSNF gave a Kd (HLA-A*26:01 [2]) of 1900 nM.
LWPFIRINNL was tested, and the Kd (HLA-A*24:02; [10]) was 453 nM, the Kd (HLA-A*29:02; [10]) was 1640 nM and the Kd (HLA-A*23:01; [10]) was 117 nM.
Work on HLSRTVVYSY yielded a Kd (HLA-A*30:01; [10]) of 525 nM, a Kd (HLA-A*32:01; [10]) of 671 nM and a Kd (HLA-A*01:01; [10]) of 1330 nM. For the same sequence, the Kd (HLA-A*29:02; [10]) was 1210 nM, the Kd (HLA-A*26:01 [1]; [10]) was 10600 nM and the Kd (HLA-A*30:02; [10]) was 63.8 nM.
FLDGVNLVA showed a Kd (HLA-A*24:02; [10]) of at least 77500 nM, a Kd (HLA-A*01:01; [10]) of 9.76 nM and a Kd (HLA-A*29:02; [10]) of 5430 nM. The Kd (HLA-A*23:01; [10]) was 8810 nM, the Kd (HLA-A*26:01 [1]; [10]) was at least 77900 nM and the Kd (HLA-A*30:02; [10]) was 17700 nM.

From the Immune Epitope Database (IEDB)
